Test results taken from PMC12287357 (2025).

Molecular target: SteE_pS141pY143
Assay: BLI

B1: recombinant His6-STAT3^127-715 (domain or fragment)
chain: GQANHPTAAVVTEKQQMLEQHLQDVRKRVQDLEQKMKVVENLQDDFDFNYKTLKSQGDMQDLNGNNQSVTRQKMQQLEQMLTALDQMRRSIVSELAGLLSAMEYVQKTLTDEELADWKRRQQIACIGGPPNICLDRLENWITSLAESQLQTRQQIKKLEELQQKVSYKGDPIVQHRPMLEERIVELFRNLMKSAFVVERQPCMPMHPDRPLVIKTGVQFTTKVRLLVKFPELNYQLKIKVCIDKDSGDVAALRGSRKFNILGTNTKVMNMEESNNGSLSAEFKHLTLREQRCGNGGRANCDASLIVTEELHLITFETEVYHQGLKIDLETHSLPVVVISNICQMPNAWASILWYNMLTNNPKNVNFFTKPPIGTWDQVAEVLSWQFSSTTKRGLSIEQLTTLAEKLLGPGVNYSGCQITWAKFCKENMAGKGFSFWVWLDNIIDLVKKYILALWNEGYIMGFISKERERAILSTKPPGTFLLRFSESSKEGGVTFTWVEKDISGKTQIQSVEPYTKQQLNNMSFAEIIMGYKIMDATNILVSPLVYLYPDIPKEEAFGKYCRPESQEHPEADPGSAAPYLKTKFICVTP
Kd: 1.4 µM
